Experimental data as given in US20030166009A1 (MERCK, published 2003).
Read-outs that look alike come from different tables or passages of the source. Where no end group is shown, it is not given here.

Assays:
[1] = target: T1, human MC5 receptor (human, UniProt P33032 1-325)
T1 construct: whole, on cells; It was tested as crude membranes prepared from cells expressing the receptor; also called hMC-5R

[2] = target: T2, human MC4 receptor (human, UniProt P32245 1-332)
T2 construct: whole, on cells; It was tested as crude membranes prepared from cells expressing the receptor; also called hMC-4R
T2 sequence (P32245 whole entry): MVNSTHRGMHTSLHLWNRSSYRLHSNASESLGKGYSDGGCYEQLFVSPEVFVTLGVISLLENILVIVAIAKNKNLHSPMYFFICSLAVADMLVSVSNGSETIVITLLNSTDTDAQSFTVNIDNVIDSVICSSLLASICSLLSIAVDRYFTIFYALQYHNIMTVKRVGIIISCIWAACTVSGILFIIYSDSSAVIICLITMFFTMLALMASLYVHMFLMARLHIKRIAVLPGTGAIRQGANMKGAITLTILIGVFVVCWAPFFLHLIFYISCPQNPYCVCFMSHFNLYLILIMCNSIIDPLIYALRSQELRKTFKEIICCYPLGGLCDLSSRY

[3] = target: rhesus melanocortin-4 receptor protein (rhesus monkey (Macaca mulatta))
Chain of rhesus melanocortin-4 receptor protein (rhesus monkey (Macaca mulatta)) (Q8HXX3 whole entry R167G): as the sequence (P32245 whole entry) above, with T11A, Y21H, A114T, I296V counted along it

[4] = target: T3, human MC3 receptor (human, UniProt P41968 1-323)
T3 construct: whole, on cells; It was tested as crude membranes prepared from cells expressing the receptor; also called hMC-3R
T3 sequence (P41968 whole entry): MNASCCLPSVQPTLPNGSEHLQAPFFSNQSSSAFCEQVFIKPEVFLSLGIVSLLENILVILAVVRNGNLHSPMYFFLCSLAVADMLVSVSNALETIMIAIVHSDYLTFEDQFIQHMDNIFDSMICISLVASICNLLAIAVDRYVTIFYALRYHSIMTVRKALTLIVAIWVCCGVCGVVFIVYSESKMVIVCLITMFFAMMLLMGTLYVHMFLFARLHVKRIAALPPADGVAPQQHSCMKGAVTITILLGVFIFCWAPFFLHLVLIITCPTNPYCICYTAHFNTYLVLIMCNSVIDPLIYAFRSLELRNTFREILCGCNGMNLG

[5] = target: T4, rhesus melanocortin-4 receptor protein (rhesus monkey (Macaca mulatta), UniProt Q8HXX3 1-332 (cynomolgus entry))
T4 construct: This is the full-length 332 amino acid receptor encoded by pVE3099; also called rhMC-4R; rhesus MC-4R
T4 sequence (Q8HXX3 whole entry R167G): as the sequence (P32245 whole entry) above, with T11A, Y21H, A114T, I296V counted along it
Description: (§1) Reactions were incubated for 1 hour without shaking and then filtered through 96-well filter plates (Packard corp.). Filters were washed three times with TNE buffer (50 mM Tris pH 7.4, 5 mM EDTA, 150 mM NaCl), dried and counted using Microscint-20 in a Topcount scintillation counter (Packard).
(§2) Membranes prepared from rhesus MC-4R transfected cells were evaluated alongside membranes prepared from human MC-4R, MC-4R, and MC-5R expressing cells.

[6] = target: T1, human MC5 receptor; remark: listed apart in the source
Description: as §1, §2

[7] = target: T2, human MC4 receptor; remark: listed apart in the source
Description: as §1, §2

[8] = target: T3, human MC3 receptor; remark: listed apart in the source
Description: as §1, §2

T1 sequence (P33032 whole entry): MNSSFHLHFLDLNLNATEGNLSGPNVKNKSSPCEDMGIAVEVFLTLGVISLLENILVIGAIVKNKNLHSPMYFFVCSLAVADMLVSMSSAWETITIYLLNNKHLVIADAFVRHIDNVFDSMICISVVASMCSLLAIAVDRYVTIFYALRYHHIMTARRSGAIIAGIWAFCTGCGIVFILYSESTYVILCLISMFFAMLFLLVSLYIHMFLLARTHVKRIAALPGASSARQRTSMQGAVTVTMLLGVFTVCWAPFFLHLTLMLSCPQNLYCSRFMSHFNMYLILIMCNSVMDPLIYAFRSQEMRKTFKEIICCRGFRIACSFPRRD

IC50 [1] | IC50 [2] | IC50 [3] | IC50 [4] | IC50 [5] | IC50 [6] | IC50 [7] | IC50 [8] | Molecule
900 pM | 100 pM | 100 pM |  |  |  |  |  | MTII (peptide)
100 pM | 100 pM | 200 pM | 300 pM |  |  |  |  | SHU-9119 (peptide)
400 pM | 600 pM | 1300 pM | 600 pM |  |  |  |  | NDP-alpha-MSH (peptide)
 |  |  |  | 27000 pM |  |  |  | SYSMEHFRWGKPV (peptide, UniProt P01189 138-150, looked up, domain: alpha MSH; The peptide is only a part of it; also called α-MSH; α-melanocyte stimulating hormone) [Alpha MSH]
 |  |  |  | 1300 pM | 400 pM | 6000 pM | 6000 pM | SYSMEHFRWGKPVGKKRRPVKVYPNGAEDESAEAFPLEF (peptide, UniProt P01189 138-176, looked up, domain: ACTH1-39; The numbers 1-39 count on the ACTH peptide, not on the precursor) [ACTH1-39]
 |  |  |  | 211000 pM |  |  |  | YVMGHFRWDRF (peptide, UniProt P01189 77-87, looked up, ends and bridges not checked, domain: gamma MSH; The peptide is only a part of it; also called γ-MSH) [Gamma MSH]
 |  |  |  | 23000 pM | 166000 pM |  | 23000 pM | DEGPYRMEHFRWGSPPKD (peptide, UniProt P01189 217-234, looked up, domain: beta MSH; The peptide is only a part of it; also called β-MSH) [Beta MSH]
